In patent US20150111836A1, “CELLULAR APOBEC3 PROTEINS AND MODULATORS THEREOF FOR REGULATING DNA REPAIR PROCESSES AND TREATING PROLIFERATIVE DISEASES” (priority 2012, published 2015):

What was measured:
[1] = tested on: HRind cells (U2OS-DR-GFP); assay: DR-GFP HR reporter assay of ISceI-induced DSB repair; assay type: cell-based; conditions: expression plasmid transfected, 52 hours after ISceI induction, FIG. 11B
Description: Repair of a unique ISceI-induced DSB by HR was assessed in U2OS-DR-GFP cells stably transfected with the Cherry-Sce-GR plasmid (HRind cells) as described in Shahar OD et al.. Cherry-ZScel-GR rapidly translocates from the cytoplasm into the nucleus on binding to triamcinolone acetonide (TA). The DR-GFP cassette enables reconstitution of GFP after ZScel-dependent HR between 2 mutated GFP sequences. Transfection of A3G or A3GW285A expression plasmids was performed in 24-well plates with GenJet (Signa-gen). Forty hours after transfection, IScel-directed DSB was induced with 10^7M TA (Sigma-Aldrich). GFP^+ cells were sorted 52 hours later by flow cytometry using FACScan as described in Shahar OD [10].

[2] = tested on: ss-deoxyoligonucleotide substrate; assay: Cytidine deaminase activity of purified wild-type and mutant A3G; assay type: biochemical
Description: Deaminase activity of purified enzyme and virion-associated A3G protein was examined as previously described. Briefly, A3G deamination reactions were performed in a total volume of 10 μl in 25 mM Tris, pH 7.0, and 0.01-1 fmol single-stranded (ss) deoxyoligonucleotide substrate at 37° C. The reaction was terminated by heating to 95° C. for 5 min. One μl of the reaction mixture was used for PCR amplification performed in 20 μl buffer S, using the following program: 1 cycle at 95° C. for 3 min, followed by 30 cycles of annealing at 61° C. for 30 s and denaturing at 94° C. for 30 s. Aliquots of the PCR products (10 μl) were incubated with Eco147I restriction enzyme for 1 h at 37° C. Completion of the restriction reaction was verified by using positive-control substrate containing CCU instead of CCC. Restriction-reaction products were loaded onto 14% gels and separated by PAGE. Gels were stained with SYBR gold nucleic acid stain diluted 1:10,000 in 0.5× Tris-Borate-EDTA buffer (TBE, pH 7.8), visualized by UV light (312 nm), captured by an Olympus C-5050 charge-coupled device (CCD) camera and analyzed by optical density (OD) scan using the TINA2.0 densitometry software. Assessment of A3G entrapped in virions was carried out with concentrated viruses stocks of 3-5 μg of p24/μl) suspended in PBS containing Triton X-100 at final concentration of 0.1% (vv) and 50 μg/ml RNase A (Sigma-Aldrich). […]

[3] = tested on: SC or SU oligonucleotides (80 nt); assay: Electrophoretic mobility shift assay (EMSA) of ssDNA binding; conditions: biotinylated SC oligonucleotides (80 nt), FIG. 3B
Description: SC (10 pmol) was 3′ labeled with dATP-biotin using 10 u terminal deoxynucleotidyl transferase (NEB) in NEBuffer 4 (NEB) supplemented with 0.25 mM CoCl2 and 10 μM dATP-biotin (Invitrogen). Labeled oligos (200 fmol) were incubated with A3G or RPA for 8 or 30 mM, respectively, at room temperature, in EMSA buffer: 50 mM Tris (pH 7.0), 50 mM NaCl, 0.1 mg/mL BSA and 10% glycerol, in 10 μL, reaction volume. Samples were resolved by 6% native PAGE, transferred to a Hybond N nylon membrane (GE Healthcare) using a semi-dry transfer apparatus (Biorad) and UV-crosslinked (302 nm) for 15 min. Following blocking with Casein blocking buffer (Sigma), the membrane was treated with horseradish peroxidase conjugated sterptavidine (Jackson) for 20 mM at RT, washed 6 times with TBS (pH 7.4) and visualized by enhanced chemiluminescence. […] Following incubation with A3G, samples were resolved by PAGE, stained with SYBR Gold (Molecular Probes) and visualized by UV light (302 nm).

[4] = tested on: primer with 3′-terminal CC; assay: Terminal cytidine deamination, DNA polymerase primer extension / PCR assay; assay type: biochemical; conditions: FIG. 4A
Description: A3G deaminates the extreme base of the ssDNA 3′-terminus and tethers two ssDNA termini To determine whether A3G interacts with the terminal base of the ssDNA, the inventors tested terminal cytidine deamination by A3G. A primer with 3′-terminal CC was incubated with A3G and was then used for extension and PCR amplification of a target sequence. It was previously shown that A3G W285 residue contributes to formation of a hydrophobic cavity and is essential for catalytic activity. […] A cleavage resistant polynucleotide deaminase substrate, comprising an internal cytidine, was incubated with either A3G or A3G W285A. Upon deamination, the internal uridine-containing polynucleotide was susceptible to restriction, and yielded a fragment which was apparent in the PAGE analysis of the cleaved deamination products shown in FIG. 3C (bottom).

SupT11 cells = assay: γ-H2AX foci in SupT11 cells stably expressing A3G variants after IR; assay type: cell-based, human; conditions: 24 hours after IR (4 Gy), FIG. 9B
Description: Cells were irradiated by exposure to a ^60Co source producing 1 Gy sec^−1 γ-radiation, or mock-irradiated. Following incubation at 37° C., cells were fixed, attached to glass slides by cytospin, permeabilized with detergent and blocked with 10% normal goat serum. Cells were then incubated with A3G-specific rabbit polyclonal antibody, γ-H2AX-specific monoclonal antibody, or RPA32-specific monoclonal antibody, followed by incubation with goat anti-rabbit Cy-5-conjugated antibody, goat anti-mouse Cy-2-conjugated antibody and DAPI. Slides were mounted and examined by Zeiss LSM 710 confocal microscope. Data were collected sequentially using a ×63 objective with 7-fold averaging at a resolution of […], Z-sections were obtained using an optical slice of less than 1 μm. Data were analyzed with the Zen 2009.
To assess whether A3G cytidine deaminase activity is required for DSB repair, the inventors examined whether IR-Induced 7412AX focus formation occurred differentially in SupTH cells stably expressing A3G, an E259Q catalytic mutant (as denoted by SEQ ID NO. 90) or empty vector (EV).

[5] = tested on: DNA1 and DNA2 ss-oligonucleotides; assay: Terminal ssDNA tethering by DNA polymerase terminal extension; assay type: biochemical; conditions: DNA1+2, FIG. 4D
Description: DNA1 and DNA2 were annealed to an equimolar amount of a short oligonucleotide (30 nt) complementary to the 5′-termius by heating to 95° C. followed by slow cooling to RT. DNA-polymerase extension reactions were performed in a total volume of 7 μl and included 100 fmol annealed oligonucleotides, 50 μM dNTPs (dCTP, dGTP, dTTP and dATP-biotin (Invitrogen)), NEBuffer 1 (final dilution ×0.35 (NEB)), 1 mg/ml BSA, 100 fmol A3G or A3G W285A, and 5 u Klenow Fragment (3′→5′ exo(−), NEB). Reactions were incubated for 30 min at 37° C. and terminated by heating to 95° C. for 5 min and adding 5 μl formamide. Samples were then heated to 80° C. prior to loading on pre-heated 10% acrylamide gel containing 6M urea. Gels were washed in Tris-Boric acid-EDTA buffer (ph 8.3) for 15 min and transferred to nylon membranes as described in the EMSA protocol below.
To further investigate A3G-mediated terminal ssDNA tethering, the inventors developed a DNA polymerase extension assay depicted in FIG. 4C. The 5′-termini of two ss-oligonucleotides (DNA1 and DNA2, 80 nt) were annealed to complementary oligonucleotides (30 nt), leaving 3′ ssDNA overhangs. […] As expected, no extension products were detected in the presence or absence of wild-type or mutant A3G (not shown). […]

| Molecule | reduction of HR [1] [%] | catalytic activity (cytidine deamination) ([2]; purified protein, FIG. 3C) | ssDNA binding properties [3] | PCR amplification after incubation of the primer [4] | enhancement of DSB repair (SupT11 cells) | average DSB load (γ-H2AX focus formation), lower than EV control cells (SupT11 cells) | extension efficiency relative to Klenow fragment alone [5] | dC in the oligonucleotide substrate deaminated ([2]; purified recombinant A3G alone, FIG. 14A) [%] | inhibition of the PCR reaction after incubation of the primer [4] [%] |
| --- | --- | --- | --- | --- | --- | --- | --- | --- | --- |
| A3G W285A: A3G W285A catalytic mutant, deaminase-dead control that binds ssDNA (protein, A3G W285A mutant) MKPHFRNTVERMYRDTFSYNFYNRPILSRRNTVWLCYEVKTKGPSRPPLDAKIFRGQVYSELKYHPEMRFFHWFSKWRKLHRDQEYEVTWYISWSPCTKCTRDMATFLAEDPKVTLTIFVARLYYFWDPDYQEALRSLCQKRDGPRATMKIMNYDEFQHCWSKFVYSQRELFEPWNNLPKYYILLHIMLGEILRHSMDPPTFTFNFNNEPWVRGRHETYLCYEVERMHNDTWVLLNQRRGFLCNQAPHKHGFLEGRHAELCFLDVIPFWKLDLDQDYRVTCFTSASPCFSCAQEMAKFISKNKHVSLCIFTARIYDDQGRCQEGLRTLAEAGAKISIMTYSEFKHCWDTFVDHQGCPFQPWDGLDEHSQDLSGRLRAILQNQEN | 6.2 | catalytically inactive | retained wild-type ssDNA binding properties | normal PCR amplification | – | – | – | – | – |
| A3G E259Q: A3G E259Q catalytic mutant stably expressed in SupT11 cells (protein, A3G E259Q mutant, A3G E259Q catalytic mutant stably expressed in SupT11 cells) MKPHFRNTVERMYRDTFSYNFYNRPILSRRNTVWLCYEVKTKGPSRPPLDAKIFRGQVYSELKYHPEMRFFHWFSKWRKLHRDQEYEVTWYISWSPCTKCTRDMATFLAEDPKVTLTIFVARLYYFWDPDYQEALRSLCQKRDGPRATMKIMNYDEFQHCWSKFVYSQRELFEPWNNLPKYYILLHIMLGEILRHSMDPPTFTFNFNNEPWVRGRHETYLCYEVERMHNDTWVLLNQRRGFLCNQAPHKHGFLEGRHAQLCFLDVIPFWKLDLDQDYRVTCFTSWSPCFSCAQEMAKFISKNKHVSLCIFTARIYDDQGRCQEGLRTLAEAGAKISIMTYSEFKHCWDTFVDHQGCPFQPWDGLDEHSQDLSGRLRAILQNQEN | – | – | – | – | enhanced repair was not observed | – | – | – | – |
| A3G: wild-type human APOBEC3G, purified with C-terminal His6 tag from 293T cells or expressed in cells (protein, listed as Homo sapiens, C-terminal His6 tag, wild-type human APOBEC3G, purified with C-terminal His6 tag from 293T cells or expressed in cells) MKPHFRNTVERMYRDTFSYNFYNRPILSRRNTVWLCYEVKTKGPSRPPLDAKIFRGQVYSELKYHPEMRFFHWFSKWRKLHRDQEYEVTWYISWSPCTKCTRDMATFLAEDPKVTLTIFVARLYYFWDPDYQEALRSLCQKRDGPRATMKIMNYDEFQHCWSKFVYSQRELFEPWNNLPKYYILLHIMLGEILRHSMDPPTFTFNFNNEPWVRGRHETYLCYEVERMHNDTWVLLNQRRGFLCNQAPHKHGFLEGRHAELCFLDVIPFWKLDLDQDYRVTCFTSWSPCFSCAQEMAKFISKNKHVSLCIFTARIYDDQGRCQEGLRTLAEAGAKISIMTYSEFKHCWDTFVDHQGCPFQPWDGLDEHSQDLSGRLRAILQNQEN | 30.2 | – | – | – | – | approximately 2 fold | approximately 9 fold | 20 | ~90 |
